Measured values reported in article PMC9352680, “A comprehensive thermodynamic model for RNA binding by the Saccharomyces cerevisiae Pumilio protein PUF4”.

T1: PUF4 RNA-binding domain (Saccharomyces cerevisiae, UniProt P25339 537-888)
T1 sequence: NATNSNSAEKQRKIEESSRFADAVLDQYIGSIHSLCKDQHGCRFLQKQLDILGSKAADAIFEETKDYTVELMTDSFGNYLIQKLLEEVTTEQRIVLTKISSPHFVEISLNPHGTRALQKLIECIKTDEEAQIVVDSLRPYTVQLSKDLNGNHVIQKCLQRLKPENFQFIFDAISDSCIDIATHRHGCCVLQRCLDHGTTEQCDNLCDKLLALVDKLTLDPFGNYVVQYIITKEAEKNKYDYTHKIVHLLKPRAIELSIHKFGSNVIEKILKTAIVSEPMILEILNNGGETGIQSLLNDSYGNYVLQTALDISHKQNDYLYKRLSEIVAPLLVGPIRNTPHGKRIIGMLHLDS

B1: Ic_S1_P4E.1_K4.1_C4.1_H4.1_A4.1_[T5C]_[A6C]_[T7C]_F4.1_[T8G]_[A9C]_T4.1 (ssRNA)
RNA: UCUCUUUGUACCCGCUCUCUU
B2: Ic_S1_P4E.1_K4.1_C4.1_H4.1_A4.1_[T5C]_[A6G]_[T7C]_F4.1_[T8A]_[A9T]_T4.1 (ssRNA)
RNA: UCUCUUUGUACGCAUUCUCUU
B3: Ic_S1_P4E.1_K4.1_C4.1_H4.1_A4.1_[T5G]_[A6T]_F4.1_[T8C]_[A9C]_T4.1 (ssRNA)
RNA: UCUCUUUGUAGUUCCUCUCUU
B4: Ic_S1_P4E.1_K4.1_C4.1_H4.1_A4.1_[T5C]_[A6G]_F4.1_[A9C]_T4.1 (ssRNA)
RNA: UCUCUUUGUACGUUCUCUCUU
B5: Ib_S1_P3E.1_K3.1_C3.1_H3.1_[G2C]_A3.1_F3.1_[T7C]_T3.1 (ssRNA)
RNA: UCUCUUUCUAUACAUCUCUU
B6: Ic_S1_P4E.1_K4.1_C4.1_H4.1_A4.1_[T5C]_[A6G]_[T7C]_F4.1_[T8A]_[A9C]_T4.1 (ssRNA)
RNA: UCUCUUUGUACGCACUCUCUU
B7: Ic_S1_P4E.1_K4.1_C4.1_H4.1_A4.1_[T5C]_[A6G]_F4.1_[T8A]_[A9C]_T4.1 (ssRNA)
RNA: UCUCUUUGUACGUACUCUCUU
B8: Ic_S1_P4E.1_K4.1_C4.1_H4.1_A4.1_[T5C]_[A6G]_[T7A]_F4.1_[A9T]_T4.1 (ssRNA)
RNA: UCUCUUUGUACGAUUUCUCUU
B9: Ic_S1_P4E.1_K4.1_C4.1_H4.1_A4.1_[T5C]_[A6G]_F4.1_[A9T]_T4.1 (ssRNA)
RNA: UCUCUUUGUACGUUUUCUCUU
B10: Ic_S1_P4E.1_K4.1_C4.1_H4.1_A4.1_[T5C]_[A6G]_[T7C]_F4.1_[T8A]_T4.1 (ssRNA)
RNA: UCUCUUUGUACGCAAUCUCUU
B11: Ic_S1_P4E.1_K4.1_C4.1_H4.1_A4.1_[T5C]_[A6G]_[T7G]_F4.1_[A9G]_T4.1 (ssRNA)
RNA: UCUCUUUGUACGGUGUCUCUU
B12: Ic_S1_P4E.1_K4.1_C4.1_H4.1_A4.1_[T5C]_[A6C]_[T7G]_F4.1_T4.1 (ssRNA)
RNA: UCUCUUUGUACCGUAUCUCUU
B13: Ic_S1_P4E.1_K4.1_C4.1_H4.1_A4.1_[T5C]_[A6G]_[T7C]_F4.1_[T8G]_T4.1 (ssRNA)
RNA: UCUCUUUGUACGCGAUCUCUU
B14: Ib_S1_P3E.1_K3.1_C3.1_H3.1_[T1A]_A3.1_F3.1_[T7C]_T3.1 (ssRNA)
RNA: UCUCUUAGUAUACAUCUCUU
B15: Ic_S1_P4E.1_K4.1_C4.1_H4.1_A4.1_[T5C]_[A6G]_[T7G]_F4.1_T4.1 (ssRNA)
RNA: UCUCUUUGUACGGUAUCUCUU
B16: Ic_S1_P4E.1_K4.1_C4.1_H4.1_A4.1_[T5C]_[A6G]_[T7C]_F4.1_[T8C]_[A9T]_T4.1 (ssRNA)
RNA: UCUCUUUGUACGCCUUCUCUU
B17: Ic_S1_P4E.1_K4.1_C4.1_H4.1_A4.1_[T5C]_[A6G]_F4.1_[A9G]_T4.1 (ssRNA)
RNA: UCUCUUUGUACGUUGUCUCUU
B18: Ic_S1_P4E.1_K4.1_C4.1_H4.1_A4.1_[T5C]_[A6G]_[T7G]_F4.1_[A9T]_T4.1 (ssRNA)
RNA: UCUCUUUGUACGGUUUCUCUU
B19: Ic_S1_P4E.1_K4.1_C4.1_H4.1_A4.1_[T5G]_[A6T]_F4.1_[T8G]_[A9T]_T4.1 (ssRNA)
RNA: UCUCUUUGUAGUUGUUCUCUU
B20: Ic_S1_P4E.1_K4.1_C4.1_H4.1_A4.1_[T5C]_[A6G]_F4.1_[T8C]_[A9T]_T4.1 (ssRNA)
RNA: UCUCUUUGUACGUCUUCUCUU
B21: Ic_S1_P4E.1_K4.1_C4.1_H4.1_A4.1_[T5C]_[A6G]_F4.1_[T8G]_[A9T]_T4.1 (ssRNA)
RNA: UCUCUUUGUACGUGUUCUCUU
B22: Ic_S1_P4E.1_K4.1_C4.1_H4.1_A4.1_[T5G]_[A6T]_[T7A]_F4.1_T4.1 (ssRNA)
RNA: UCUCUUUGUAGUAUAUCUCUU
B23: Ic_S1_P4E.1_K4.1_C4.1_H4.1_A4.1_[T5C]_[A6C]_[T7G]_F4.1_[T8A]_[A9T]_T4.1 (ssRNA)
RNA: UCUCUUUGUACCGAUUCUCUU
B24: Ic_S1_P4E.1_K4.1_C4.1_H4.1_A4.1_[T5C]_[A6G]_F4.1_[T8C]_[A9C]_T4.1 (ssRNA)
RNA: UCUCUUUGUACGUCCUCUCUU
B25: Ic_S1_P4E.1_K4.1_C4.1_H4.1_A4.1_[T5C]_[A6G]_F4.1_[T8G]_[A9C]_T4.1 (ssRNA)
RNA: UCUCUUUGUACGUGCUCUCUU
B26: Ic_S1_P4E.1_K4.1_C4.1_H4.1_A4.1_[T5C]_[A6G]_[T7G]_F4.1_[T8C]_T4.1 (ssRNA)
RNA: UCUCUUUGUACGGCAUCUCUU
B27: Ic_S1_P4E.1_K4.1_C4.1_H4.1_A4.1_[T5G]_[A6T]_F4.1_[A9T]_T4.1 (ssRNA)
RNA: UCUCUUUGUAGUUUUUCUCUU
B28: Ic_S1_P4E.1_K4.1_C4.1_H4.1_A4.1_[T5C]_[A6C]_[T7G]_F4.1_[A9T]_T4.1 (ssRNA)
RNA: UCUCUUUGUACCGUUUCUCUU
B29: Ic_S1_P4E.1_K4.1_C4.1_H4.1_A4.1_[T5C]_[A6G]_F4.1_[T8C]_T4.1 (ssRNA)
RNA: UCUCUUUGUACGUCAUCUCUU
B30: Ic_S1_P4E.1_K4.1_C4.1_H4.1_A4.1_[T5C]_[A6G]_F4.1_[T8A]_[A9G]_T4.1 (ssRNA)
RNA: UCUCUUUGUACGUAGUCUCUU
B31: Ic_S1_P4E.1_K4.1_C4.1_H4.1_A4.1_[T5C]_[A6G]_[T7C]_F4.1_[T8C]_[A9C]_T4.1 (ssRNA)
RNA: UCUCUUUGUACGCCCUCUCUU
B32: Ic_S1_P4E.1_K4.1_C4.1_H4.1_A4.1_[T5C]_[A6C]_[T7G]_F4.1_[T8G]_[A9C]_T4.1 (ssRNA)
RNA: UCUCUUUGUACCGGCUCUCUU

target: T1, PUF4 RNA-binding domain; assay: Mg; RNA-MaP; 20 mM Na-HEPES pH 7.4, 30 mM KOAc, 0.75 mM MgCl2, 0.1% Tween-20, 5% glycerol, 0.1 mg/mL BSA, 2 mM DTT; 25 C; 0.0125-409.6 nM protein; conditions: tags: N-His6-TEV cleaved; C-SNAP kept, Cy3B-labelled; label: tethered on chip by stalled RNA polymerase

Binder | Kd [nM]
B1 | 1420
B2 | 425
B3 | 1260
B4 | 29.9
B5 | > 2300
B6 | 669
B7 | 1560
B8 | 22.7
B9 | 37.8
B10 | 139
B11 | 503
B12 | 23.4
B13 | 727
B14 | > 2300
B15 | 13.4
B16 | 777

Binder | Kd [nM]
B17 | 40.5
B18 | 360
B19 | 802
B20 | 1520
B21 | 110
B22 | 11.2
B23 | 519
B24 | 482
B25 | 466
B26 | 625
B27 | 118
B28 | 142
B29 | 118
B30 | 93.5
B31 | 879
B32 | > 2300
